Data published in publication PMC3824618.

Biological target: T1, wild-type human cystathionine β-synthase, HIS-tagged, expressed in HEK-293 cells (human), P35520
T1 chain: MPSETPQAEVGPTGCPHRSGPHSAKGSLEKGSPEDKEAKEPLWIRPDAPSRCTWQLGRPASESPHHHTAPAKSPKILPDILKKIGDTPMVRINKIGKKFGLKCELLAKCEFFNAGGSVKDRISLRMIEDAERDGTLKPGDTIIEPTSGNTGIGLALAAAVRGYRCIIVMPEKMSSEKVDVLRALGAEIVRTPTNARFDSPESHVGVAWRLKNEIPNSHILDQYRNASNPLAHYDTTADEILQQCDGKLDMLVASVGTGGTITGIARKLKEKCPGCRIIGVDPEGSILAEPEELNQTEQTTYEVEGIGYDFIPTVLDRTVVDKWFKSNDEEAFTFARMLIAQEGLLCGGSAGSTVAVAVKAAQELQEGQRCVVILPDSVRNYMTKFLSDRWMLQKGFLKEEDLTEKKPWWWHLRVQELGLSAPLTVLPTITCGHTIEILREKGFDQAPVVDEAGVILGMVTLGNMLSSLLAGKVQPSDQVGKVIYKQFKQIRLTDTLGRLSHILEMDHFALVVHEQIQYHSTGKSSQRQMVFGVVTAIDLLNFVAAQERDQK
Assay: native gel or EMSA
Details: remark: other sources report otherwise

B1: wild-type human cystathionine β-synthase, HIS-tagged, expressed in HEK-293 cells, P35520 1-551 (enzyme)
chain: T1 chain
Question: With B1 as the binder, how does the stoichiometry N read?
Answer: 4
